First the molecules themselves.
B1: CPEB3 Ribozyme (parent)
chain: UAACAGGGGGCCACAGCAGAAGCGUUCACGUCGCAGCCCCUGUCAGAUUCUGGUGAAUCUGCGAAUUCUGCUGUAUAUCUC

The values below come from the RNAGym collection of RNA variant scans (doi:10.1093/nar/gkz1192).

In this series the parent is B1. Briefly: self-cleavage, relative activity (ratio to wild type); higher = more cleavage; in vitro, sequencing. The method in brief: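 Relative activity was defined as the cleaved/total read fraction for a variant divided by the same fraction for the unmutated ribozyme. CPEB3 self-cleaving ribozyme libraries were made by rounds of error-prone PCR, barcoded, and transcribed in vitro with T7 RNA polymerase for 5 hours at 37°C, and cleavage ran through transcription plus a 15 min DNase I step before EDTA. Illumina sequencing of template-switched reverse transcripts gave the reads, and DNA sequencing mapped the barcodes. Averages come from three batches, using variants with at least 5 reads.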
G6U U51C: the self-cleavage is 0.36.

In the case of G6A U43A, the self-cleavage worked out at 0.49.

For G6A U43C, the self-cleavage came out at 0.19.

In the case of A5U U26A, the self-cleavage came to 1.05.

For the variant A5U U26C, the self-cleavage stood at 0.72.

G7A A65G: the self-cleavage was found to be 0.11.

Take G6A C17A: the self-cleavage is 0.54.

For the variant G6A C17U, the self-cleavage amounted to 0.22.

For the variant G6A A18U, the self-cleavage came out at 0.23.

Consider G6A A18G, for which the self-cleavage was 0.31.

As for G6A A18C, the self-cleavage came to 0.44.

Turning to G6A G19A, the self-cleavage turned out to be 0.26.

For G6A G19C, the self-cleavage came to 0.42.

For G6A G19U, the self-cleavage was 0.06.

With A5U U43C, the self-cleavage worked out at 0.76.

Regarding A5U U43A, the self-cleavage came to 1.24.

Regarding G6U A45U, the self-cleavage was determined as 0.19.

Regarding G6U A45G, the self-cleavage was determined as 0.11.

For the variant G6C A18U, the self-cleavage stood at 0.07.

For G7A A64U, the self-cleavage worked out at 0.18.

Regarding G7A A64G, the self-cleavage is 0.28.

Take G6A G30A: the self-cleavage came out at 0.19.

Regarding G6C U58A, the self-cleavage is 0.21.

Take A5U U69C: the self-cleavage was determined as 0.74.

Consider A5U U69A, for which the self-cleavage was determined as 0.81.

On to A5U U48C, for which the self-cleavage came out at 0.66.

G6A C59A: the self-cleavage was found to be 0.15.

Take G6A G73U: the self-cleavage is 0.89.

Turning to G6C A21G, the self-cleavage is 0.56.

As for G6C A21U, the self-cleavage came to 0.39.

In the case of G6C U31A, the self-cleavage was 0.16.

Regarding G6C U31C, the self-cleavage was 0.45.

Consider G7A A75G, for which the self-cleavage came to 0.3.

On to G7A A28C, for which the self-cleavage amounted to 0.2.

In the case of G7A A28G, the self-cleavage is 0.16.

On to G6A U69G, for which the self-cleavage was 0.27.

As for G6A U69A, the self-cleavage stood at 0.32.

G6A U69C: the self-cleavage was found to be 0.15.

Take A5U U78A: the self-cleavage came to 1.15.

Take A5U U78C: the self-cleavage was found to be 0.93.

As to G6A G33U, the self-cleavage was determined as 0.22.

Regarding G6A G33A, the self-cleavage came out at 0.29.

Regarding G6A A47G, the self-cleavage is 0.46.

For G6A A47U, the self-cleavage amounted to 0.32.

G6U U72C: the self-cleavage is 0.37.

In the case of G6U U25C, the self-cleavage is 0.37.

As for G6C C71A, the self-cleavage is 0.21.

For A5U U67A, the self-cleavage came to 0.63.

Turning to A5U U67C, the self-cleavage was 0.29.

Take A5U U67G: the self-cleavage was determined as 0.54.

As to G6U G16C, the self-cleavage stood at 0.19.

With G6A G42A, the self-cleavage was found to be 0.15.

As for A5U G61U, the self-cleavage was found to be 0.72.

On to G6C A65G, for which the self-cleavage came out at 0.46.

G6C C38A: the self-cleavage came out at 0.43.

On to G6A A13C, for which the self-cleavage turned out to be 0.4.

As for G6A A13G, the self-cleavage is 0.35.

On to G6A A13U, for which the self-cleavage is 0.28.

With A5U U74A, the self-cleavage stood at 1.24.

For the variant A5U U74C, the self-cleavage worked out at 1.14.

G6U A77U: the self-cleavage stood at 0.16.

With G6U G10A, the self-cleavage turned out to be 0.34.

Consider G6A G61A, for which the self-cleavage was found to be 0.34.

For G6U G52A, the self-cleavage turned out to be 0.47.

With G7A A77U, the self-cleavage worked out at 0.26.

Regarding G6A U78C, the self-cleavage stood at 0.24.

With G6A U78A, the self-cleavage was 0.11.

As to G6A A75G, the self-cleavage was determined as 0.27.

Take G6A A75U: the self-cleavage worked out at 0.51.

For G6A A35G, the self-cleavage turned out to be 0.86.

For G6A A35C, the self-cleavage is 0.3.

As for G6A A35U, the self-cleavage was determined as 0.26.

Consider A5U G10C, for which the self-cleavage was 0.5.

For the variant A5U G10A, the self-cleavage was found to be 0.12.

As for G6U A13U, the self-cleavage was 0.18.

In the case of G6A G55U, the self-cleavage was determined as 0.4.

In the case of G7A C12U, the self-cleavage stood at 0.07.

For the variant G6A, the self-cleavage stood at 0.4.

Consider G6C, for which the self-cleavage turned out to be 0.36.

With G6U, the self-cleavage was found to be 0.35.

As to G6U A65U, the self-cleavage came out at 0.23.

Turning to A5U C68U, the self-cleavage was 0.99.

Turning to A5U C68A, the self-cleavage was determined as 0.29.

On to G7A A35G, for which the self-cleavage was 0.46.

In the case of G7A A35U, the self-cleavage came to 0.19.

G6C U78C: the self-cleavage was 0.48.

For G6A A20U, the self-cleavage worked out at 0.07.

As to G6A A20G, the self-cleavage came out at 0.48.

As to G6U C12U, the self-cleavage was found to be 0.19.

Consider G6U U48C, for which the self-cleavage worked out at 0.13.

Turning to G6U U48A, the self-cleavage is 0.16.

For G6A A56G, the self-cleavage amounted to 0.28.

For G6A A56U, the self-cleavage came to 0.2.

As to A5U U80G, the self-cleavage is 1.14.

As for A5U U80A, the self-cleavage was determined as 1.32.

A5U U80C: the self-cleavage is 1.12.

As for G6U A64G, the self-cleavage was 0.32.

Regarding G6U A64U, the self-cleavage amounted to 0.07.

As for G6U G8A, the self-cleavage was 0.23.

On to G6A U74C, for which the self-cleavage came out at 0.54.

As to G6U A56G, the self-cleavage worked out at 0.41.

Take G6U A56U: the self-cleavage is 0.22.

On to G6C U54C, for which the self-cleavage was determined as 0.52.

For G6A A15U, the self-cleavage turned out to be 0.18.

Take G6A A15C: the self-cleavage amounted to 0.42.

Consider G6A A15G, for which the self-cleavage stood at 0.36.

Regarding G6U A20G, the self-cleavage was 0.26.

Consider G6U A20U, for which the self-cleavage was 0.34.

Take A5U U72C: the self-cleavage turned out to be 1.14.

As to A5U U72A, the self-cleavage is 0.71.

As to A5U U72G, the self-cleavage came out at 0.94.

On to G6A C34U, for which the self-cleavage was found to be 0.15.

On to G6A C81U, for which the self-cleavage stood at 0.73.

As to G6A U48C, the self-cleavage was 0.18.

Consider A5U U76C, for which the self-cleavage is 1.13.

As to A5U U76A, the self-cleavage was 1.12.

With G7A A15U, the self-cleavage is 0.23.

As to G7A A15G, the self-cleavage worked out at 0.09.

On to G6U C71A, for which the self-cleavage is 0.16.

For the variant G6C A57G, the self-cleavage was found to be 0.5.

For G6C A45U, the self-cleavage was found to be 0.32.

As for G6A G7A, the self-cleavage came to 0.09.

For G6A G7U, the self-cleavage worked out at 0.07.

With A5U G46A, the self-cleavage was determined as 0.36.

G6U A35G: the self-cleavage was 0.41.

Take G6U A35U: the self-cleavage came to 0.36.

For A5U U31A, the self-cleavage was found to be 0.5.

In the case of A5U U31C, the self-cleavage was found to be 0.92.

In the case of G6U U41A, the self-cleavage was 0.35.

As for G6A U54A, the self-cleavage stood at 0.27.

As to G6A U54C, the self-cleavage is 0.52.

For G6A U54G, the self-cleavage turned out to be 0.19.

G6A C23A: the self-cleavage came out at 0.1.

Consider G6A C23G, for which the self-cleavage was 0.35.

In the case of G6A C23U, the self-cleavage was 0.12.

As to G7A C11G, the self-cleavage came out at 0.07.

Take G6U U60A: the self-cleavage is 0.49.

Regarding G6U U60C, the self-cleavage came out at 0.24.

Regarding G6C U69C, the self-cleavage was 0.21.

In the case of G6U A28G, the self-cleavage was determined as 0.38.

Take G6U U78A: the self-cleavage was determined as 0.79.

With G6A A57U, the self-cleavage came to 0.29.

Turning to G6A A57G, the self-cleavage is 0.34.

For the variant A5U C81A, the self-cleavage was found to be 1.24.

For A5U C81G, the self-cleavage is 1.29.

With A5U C81U, the self-cleavage was 1.17.

In the case of G6A C40U, the self-cleavage came out at 0.33.

As to G6U U69C, the self-cleavage came to 0.22.

With G6U U80A, the self-cleavage is 0.44.

Regarding G6U U80C, the self-cleavage came to 0.09.

For the variant G6U U67A, the self-cleavage was 0.09.

For G6U U67C, the self-cleavage is 0.11.

As for A5U C59G, the self-cleavage was determined as 0.37.

On to G6A G53C, for which the self-cleavage stood at 0.43.

On to G6A G53A, for which the self-cleavage worked out at 0.34.

As for G6U C62G, the self-cleavage came out at 0.25.

On to G7A A45U, for which the self-cleavage was determined as 0.16.

As to G7A A45G, the self-cleavage amounted to 0.16.

On to A5U U58A, for which the self-cleavage was 0.53.

Regarding A5U U58C, the self-cleavage stood at 0.61.

A5U G9A: the self-cleavage was 0.45.

For the variant A5U G9U, the self-cleavage stood at 0.34.

A5U U51C: the self-cleavage turned out to be 1.13.

For the variant A5U U51G, the self-cleavage was found to be 1.16.

For A5U U51A, the self-cleavage was 0.96.

In the case of G7A A20C, the self-cleavage was found to be 0.27.

Regarding G7A A20G, the self-cleavage turned out to be 0.26.
